Laboratory results: patent publication US20190092852A1 (Genentech, published 2019)
Read-outs that look alike come from different tables or passages of the source.

How the values were obtained:
[1] = molecular target: T1, human IL-33 (construct not stated) (human, UniProt O95760 112-270); experiment: cell-based or functional assay
T1 sequence (looked up): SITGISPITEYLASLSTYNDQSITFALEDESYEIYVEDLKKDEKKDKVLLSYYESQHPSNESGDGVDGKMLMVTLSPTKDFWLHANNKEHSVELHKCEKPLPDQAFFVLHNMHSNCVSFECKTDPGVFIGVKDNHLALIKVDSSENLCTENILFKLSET

[2] = molecular target: T2, cyno IL-33 (construct not stated) (cynomolgus monkey, UniProt A0A2K5W3I1 112-269); experiment: SPR, BIACORE 3000, antibody captured on anti-human Fab, 25 C, 1:1 Langmuir model; lot 2
T2 construct: also called cynomolgus IL-33; cyno IL-33 (Genentech)
T2 sequence: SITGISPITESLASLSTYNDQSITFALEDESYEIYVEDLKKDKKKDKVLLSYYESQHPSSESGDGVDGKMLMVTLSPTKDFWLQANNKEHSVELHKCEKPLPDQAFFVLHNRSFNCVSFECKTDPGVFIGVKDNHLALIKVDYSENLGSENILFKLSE
Experimental: (§1) The binding kinetics of the bispecific antibody 10C12-IL13 KIH IgG4 to human IL-33, cyno IL-33, and human IL-13 was assessed using SPR on a BIACORE® 3000 (GE Healthcare). Anti-human Fab (GE Healthcare) was immobilized on a CM5 sensor chip via amine-based coupling according to the manufacturer's protocol. The bispecific antibody was captured and binding was measured to human IL-33 (Genentech), cyno IL-33 (Genentech), and human IL-13 (Peprotech). […] Sensograms for binding of cytokine were recorded using an injection time of 2 min with a flow rate of 30 μl/min, at a temperature of 25° C., and with a running buffer of 10 mM HEPES, pH 7.4, 150 mM NaCl, 3 mM EDTA, and 0.005% TWEEN®-20. After injection, disassociation of the ligand from the antibody was monitored for 600 sec in running buffer. The surface was regenerated between binding cycles with a 40 μl injection of 10 mM Glycine-HCl pH 2.1. After subtraction of a blank which contained running buffer only, sensograms observed for cytokine binding to the bispecific antibody were analyzed using a 1:1 Langmuir binding model with software supplied by the manufacturer to calculate the kinetics and binding constants, including the dissociation constant (KD).

human IL-13 (Peprotech) [3] = molecular target: T3, human IL-13 (Peprotech) (human, UniProt P35225 35-146); experiment: as above
T3 sequence (P35225 35-146 limits assumed): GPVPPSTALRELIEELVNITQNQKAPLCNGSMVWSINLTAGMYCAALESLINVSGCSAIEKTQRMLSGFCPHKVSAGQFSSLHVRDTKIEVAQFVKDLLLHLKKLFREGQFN
Experimental: as §1

[4] = molecular target: T1, human IL-33 (construct not stated); experiment: as above
Experimental: as §1

human IL-33 N-His = molecular target: T4, human IL-33 N-His (human); experiment: cell-based or functional assay
T4 chain: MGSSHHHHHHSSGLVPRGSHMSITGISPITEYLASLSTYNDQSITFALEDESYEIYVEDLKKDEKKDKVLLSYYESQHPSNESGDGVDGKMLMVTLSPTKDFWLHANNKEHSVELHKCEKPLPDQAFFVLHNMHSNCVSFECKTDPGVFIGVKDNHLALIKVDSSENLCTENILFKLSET

[5] = molecular target: T2, cyno IL-33 (construct not stated); experiment: SPR Biacore 3000, captured by anti-human Fab, 25 C, mean of three lots
Experimental: (§2) The binding kinetics of the bispecific antibody 10C12-IL-13 KIH IgG4 to human IL-33, cyno IL-33, and human IL-13 was assessed using BIACORE® 3000 SPR (FIG. 20).
as §1

human IL-13 (Peprotech) [6] = molecular target: T3, human IL-13 (Peprotech); experiment: as above
Experimental: as §2, §1

[7] = molecular target: T1, human IL-33 (construct not stated); experiment: as above
Experimental: as §2, §1

[8] = molecular target: T2, cyno IL-33 (construct not stated); experiment: SPR, BIACORE 3000, antibody captured on anti-human Fab, 25 C, 1:1 Langmuir model; lot 3
Experimental: as §1

human IL-13 (Peprotech) [9] = molecular target: T3, human IL-13 (Peprotech); experiment: as above
Experimental: as §1

[10] = molecular target: T1, human IL-33 (construct not stated); experiment: as above
Experimental: as §1

[11] = molecular target: T2, cyno IL-33 (construct not stated); experiment: SPR, BIACORE 3000, antibody captured on anti-human Fab, 25 C, 1:1 Langmuir model; lot 1
Experimental: as §1

human IL-13 (Peprotech) [12] = molecular target: T3, human IL-13 (Peprotech); experiment: as above
Experimental: as §1

[13] = molecular target: T1, human IL-33 (construct not stated); experiment: as above
Experimental: as §1

[14] = molecular target: T5, human ST2L on HEK-BLUE IL-33/IL-1beta cells (human, UniProt Q01638 19-556); experiment: cell-based or functional assay
T5 sequence: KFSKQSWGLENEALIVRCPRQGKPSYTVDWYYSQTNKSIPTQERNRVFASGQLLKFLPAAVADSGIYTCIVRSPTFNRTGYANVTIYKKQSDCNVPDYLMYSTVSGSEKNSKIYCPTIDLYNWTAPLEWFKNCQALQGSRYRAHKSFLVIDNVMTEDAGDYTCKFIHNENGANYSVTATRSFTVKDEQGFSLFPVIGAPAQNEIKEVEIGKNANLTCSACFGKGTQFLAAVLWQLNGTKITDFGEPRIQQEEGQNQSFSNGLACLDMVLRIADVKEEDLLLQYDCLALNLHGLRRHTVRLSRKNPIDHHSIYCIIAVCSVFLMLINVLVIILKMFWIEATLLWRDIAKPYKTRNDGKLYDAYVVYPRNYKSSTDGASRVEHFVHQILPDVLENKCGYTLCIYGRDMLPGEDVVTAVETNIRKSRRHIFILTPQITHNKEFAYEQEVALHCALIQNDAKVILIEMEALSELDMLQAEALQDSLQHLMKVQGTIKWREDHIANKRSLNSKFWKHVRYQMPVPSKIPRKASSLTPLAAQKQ

[15] = molecular target: T5, human ST2L on HEK-BLUE IL-33/IL-1beta …; experiment: cell-based or functional assay; remark: listed apart in the source

B1: 10C12.38.H6.87Y.58I/IL-13 IgG4 (bispecific antibody)
heavy 1: EVQLVESGGGLVQPGGSLRLSCAASGFTFSSFSMSWVRQAPGKGLEWVATISGGKTFTDYVDSVKGRFTISRDDSKNTLYLQMNSLRAEDTAVYYCTRANYGNWFFEVWGQGTLVTVSSASTKGPSVFPLAPCSRSTSESTAALGCLVKDYFPEPVTVSWNSGALTSGVHTFPAVLQSSGLYSLSSVVTVPSSSLGTKTYTCNVDHKPSNTKVDKRVESKYGPPCPPCPAPEFLGGPSVFLFPPKPKDTLMISRTPEVTCVVVDVSQEDPEVQFNWYVDGVEVHNAKTKPREEQFNSTYRVVSVLTVLHQDWLNGKEYKCKVSNKGLPSSIEKTISKAKGQPREPQVYTLPPSQEEMTKNQVSLSCAVKGFYPSDIAVEWESNGQPENNYKTTPPVLDSDGSFFLVSRLTVDKSRWQEGNVFSCSVMHEALHNHYTQKSLSLSLG
light 1: EIVLTQSPATLSLSPGERATLSCRASESVAKYGLSLLNWFQQKPGQPPRLLIFAASNRGSGIPARFSGSGSGTDFTLTISSLEPEDFAVYYCQQSKEVPFTFGQGTKVEIKRTVAAPSVFIFPPSDEQLKSGTASVVCLLNNFYPREAKVQWKVDNALQSGNSQESVTEQDSKDSTYSLSSTLTLSKADYEKHKVYACEVTHQGLSSPVTKSFNRGEC
heavy 2: not shown
light 2: DIVLTQSPDSLSVSLGERATINCRASKSVDSYGNSFMHWYQQKPGQPPKLLIYLASNLESGVPDRFSGSGSGTDFTLTISSLQAEDVAVYYCQQNNEDPRTFGGGTKVEIKRTVAAPSVFIFPPSDEQLKSGTASVVCLLNNFYPREAKVQWKVDNALQSGNSQESVTEQDSKDSTYSLSSTLTLSKADYEKHKVYACEVTHQGLSSPVTKSFNRGEC
notes: Knob-in-hole human IgG4 made in E. coli: anti-IL-33 arm as hole, anti-IL-13 arm (lebrikizumab CDRs; Q1E heavy, M4L light) as knob; also called 10C12-IL-13 KIH IgG4; 10C12-IL13 KIH IgG4
- IC50 (read off the curve); phospho-p38 MFI in CD123+ basophils (average from 2 donors), 10 ng/ml IL-33 [1]: ~500 pM
- Kd [2]: 0.062 nM
- koff [2]: 4e-05 s⁻¹
- kon [2]: 650000 M⁻¹ s⁻¹
- Kd (human IL-13 (Peprotech) [3]): < 0.01 nM
- koff (human IL-13 (Peprotech) [3]): 4e-06 s⁻¹
- kon (human IL-13 (Peprotech) [3]): 1.47e+06 M⁻¹ s⁻¹
- Kd [4]: 0.026 nM
- koff [4]: 3e-05 s⁻¹
- kon [4]: 1.14e+06 M⁻¹ s⁻¹
- IC50; SEAP reporter, HEK-BLUE IL-33 cells, 15 pM human IL-33 N-His, 20 h (human IL-33 N-His): 25.4 pM
- Kd [5]: 0.076 nM
- Kd (human IL-13 (Peprotech) [6]): < 0.01 nM
- Kd [7]: 0.025 nM
- Kd [8]: 0.059 nM
- koff [8]: 4.1e-05 s⁻¹
- kon [8]: 700000 M⁻¹ s⁻¹
- Kd (human IL-13 (Peprotech) [9]): < 0.01 nM
- koff (human IL-13 (Peprotech) [9]): 6e-06 s⁻¹
- kon (human IL-13 (Peprotech) [9]): 1.45e+06 M⁻¹ s⁻¹
- Kd [10]: 0.041 nM
- koff [10]: 4e-05 s⁻¹
- kon [10]: 990000 M⁻¹ s⁻¹
- Kd [11]: 0.107 nM
- koff [11]: 7.2e-05 s⁻¹
- kon [11]: 670000 M⁻¹ s⁻¹
- Kd (human IL-13 (Peprotech) [12]): < 0.01 nM
- koff (human IL-13 (Peprotech) [12]): 2e-06 s⁻¹
- kon (human IL-13 (Peprotech) [12]): 1.49e+06 M⁻¹ s⁻¹
- Kd [13]: 0.01 nM
- koff [13]: 1.1e-05 s⁻¹
- kon [13]: 1.1e+06 M⁻¹ s⁻¹

B2: human IL-33 (R&D Systems, #3625-IL-010/CF) (ligand, UniProt O95760 112-270, looked up)
chain: SITGISPITEYLASLSTYNDQSITFALEDESYEIYVEDLKKDEKKDKVLLSYYESQHPSNESGDGVDGKMLMVTLSPTKDFWLHANNKEHSVELHKCEKPLPDQAFFVLHNMHSNCVSFECKTDPGVFIGVKDNHLALIKVDSSENLCTENILFKLSET
- EC50 (SEAP reporter OD 620, HEK-BLUE IL-33/IL-1beta cells) [14]: 5.5 pM

B3: cyno IL-33 N-His (ligand)
chain: MGSSHHHHHHSSGLVPRGSHMSITGISPITESLASLSTYNDQSITFALEDESYEIYVEDLKKDKKKDKVLLSYYESQHPSSESGDGVDGKMLMVTLSPTKDFWLQANNKEHSVELHKCEKPLPDQAFFVLHNRSFNCVSFECKTDPGVFIGVKDNHLALIKVDYSENLGSENILFKLSET
- EC50 (SEAP reporter OD 620, HEK-BLUE IL-33/IL-1beta cells) [15]: 4 pM
